According to the supplement of paper PMC9876800:

Tested on: peptide library, one residue held at a place counted from the S/T acceptor
Assay: relative phosphorylation of the sub-library (ratio to the mean residue at this position); higher = residue favoured
Summary of the method: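 Relative sub-library phosphorylation is the ratio of each sub-library's signal to the mean residue at that position. The signal came from phosphorimaging of spots on streptavidin membranes, quantified by densitometry, after purified recombinant kinases reacted with biotinylated degenerate peptide sub-libraries in 384-well plates. Reactions held 50 μM peptide and 50 μM ATP spiked with γ-32P-ATP for 90 min under kinase-specific conditions.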

DMPK, construct: aa24-433, human, sequence (Q09013 24-433, looked up): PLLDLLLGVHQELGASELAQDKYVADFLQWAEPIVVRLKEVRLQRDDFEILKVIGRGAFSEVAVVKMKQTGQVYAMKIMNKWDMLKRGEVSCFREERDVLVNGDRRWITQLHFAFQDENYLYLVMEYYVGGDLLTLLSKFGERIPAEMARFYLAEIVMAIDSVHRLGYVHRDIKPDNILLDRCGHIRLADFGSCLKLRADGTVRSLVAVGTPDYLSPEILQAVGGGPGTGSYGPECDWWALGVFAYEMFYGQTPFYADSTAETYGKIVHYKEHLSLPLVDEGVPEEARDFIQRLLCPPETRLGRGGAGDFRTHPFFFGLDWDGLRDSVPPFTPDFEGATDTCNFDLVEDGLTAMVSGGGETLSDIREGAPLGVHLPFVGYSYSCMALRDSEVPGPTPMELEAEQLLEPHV
ERN1, construct: aa468-end, human, sequence (O75460 468-977, looked up): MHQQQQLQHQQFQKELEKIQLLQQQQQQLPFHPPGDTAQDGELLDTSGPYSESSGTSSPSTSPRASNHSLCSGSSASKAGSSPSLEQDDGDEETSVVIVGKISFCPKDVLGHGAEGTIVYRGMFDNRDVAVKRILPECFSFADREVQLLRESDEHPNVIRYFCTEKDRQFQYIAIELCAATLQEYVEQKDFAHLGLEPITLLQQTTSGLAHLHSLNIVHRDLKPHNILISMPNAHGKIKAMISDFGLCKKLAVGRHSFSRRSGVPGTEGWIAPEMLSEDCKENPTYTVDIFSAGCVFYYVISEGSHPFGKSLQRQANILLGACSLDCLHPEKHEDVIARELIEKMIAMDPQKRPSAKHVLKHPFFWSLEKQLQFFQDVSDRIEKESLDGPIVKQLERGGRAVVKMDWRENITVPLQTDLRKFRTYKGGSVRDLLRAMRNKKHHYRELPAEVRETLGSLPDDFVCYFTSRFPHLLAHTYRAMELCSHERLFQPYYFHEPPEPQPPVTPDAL
EIF2AK4, construct: aa191-1024, human, sequence (Q9P2K8 191-1024, looked up): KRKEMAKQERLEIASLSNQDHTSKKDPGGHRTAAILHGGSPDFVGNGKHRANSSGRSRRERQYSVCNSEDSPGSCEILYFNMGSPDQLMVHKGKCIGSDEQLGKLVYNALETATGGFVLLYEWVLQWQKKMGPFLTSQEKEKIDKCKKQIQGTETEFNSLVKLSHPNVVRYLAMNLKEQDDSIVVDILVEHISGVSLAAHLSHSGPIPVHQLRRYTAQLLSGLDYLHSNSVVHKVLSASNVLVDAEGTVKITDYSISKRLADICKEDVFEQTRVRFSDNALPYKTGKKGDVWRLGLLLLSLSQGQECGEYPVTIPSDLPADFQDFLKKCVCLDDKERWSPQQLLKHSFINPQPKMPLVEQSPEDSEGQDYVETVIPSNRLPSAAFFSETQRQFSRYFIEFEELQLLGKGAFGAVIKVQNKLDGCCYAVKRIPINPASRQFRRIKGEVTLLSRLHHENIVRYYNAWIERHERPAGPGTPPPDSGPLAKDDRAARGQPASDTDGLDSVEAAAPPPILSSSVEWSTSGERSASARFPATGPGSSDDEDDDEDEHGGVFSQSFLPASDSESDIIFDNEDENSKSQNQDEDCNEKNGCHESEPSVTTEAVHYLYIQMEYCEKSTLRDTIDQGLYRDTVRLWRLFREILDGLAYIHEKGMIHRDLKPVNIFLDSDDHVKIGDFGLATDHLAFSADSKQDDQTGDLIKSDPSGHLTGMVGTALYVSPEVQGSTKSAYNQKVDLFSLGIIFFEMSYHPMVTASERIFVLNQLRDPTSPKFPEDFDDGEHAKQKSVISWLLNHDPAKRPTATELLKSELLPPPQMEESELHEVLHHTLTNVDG
EIF2AK3, construct: aa536-1116, human, sequence (Q9NZJ5 536-1116, looked up): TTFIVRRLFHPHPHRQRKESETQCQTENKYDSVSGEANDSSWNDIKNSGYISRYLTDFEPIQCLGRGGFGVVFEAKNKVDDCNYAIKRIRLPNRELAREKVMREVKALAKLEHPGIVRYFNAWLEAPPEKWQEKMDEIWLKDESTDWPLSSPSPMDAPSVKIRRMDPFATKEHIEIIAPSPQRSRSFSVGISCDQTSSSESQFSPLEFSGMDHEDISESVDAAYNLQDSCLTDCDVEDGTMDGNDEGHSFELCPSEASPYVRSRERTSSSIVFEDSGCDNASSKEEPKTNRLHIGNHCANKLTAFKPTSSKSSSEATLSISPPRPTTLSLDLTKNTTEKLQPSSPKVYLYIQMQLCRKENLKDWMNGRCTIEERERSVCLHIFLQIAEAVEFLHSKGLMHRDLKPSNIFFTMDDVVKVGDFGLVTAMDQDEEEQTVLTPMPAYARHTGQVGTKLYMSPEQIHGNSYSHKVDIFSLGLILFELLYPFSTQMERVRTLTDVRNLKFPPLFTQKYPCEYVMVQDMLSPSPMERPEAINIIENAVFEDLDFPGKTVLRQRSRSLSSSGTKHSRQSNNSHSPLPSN

DMPK, construct: aa24-433, human (from UniProt Q09013)
relative phosphorylation
Conditions	at +1	at +2	at +3	at +4	at -1	at -2	at -3	at -4	at -5
A fixed	0.884	1.09	0.772	0.749	0.934	0.551	0.572	0.816	0.664
D fixed	0.54	1.27	0.59	0.767	0.487	0.294	0.309	0.393	0.359
E fixed	0.471	0.67	0.579	0.643	0.362	0.268	0.284	0.456	0.379
F fixed	0.68	0.838	0.963	0.954	0.739	0.349	0.269	0.657	0.8
G fixed	1.68	0.858	1.04	0.945	1.08	0.537	0.448	0.959	0.915
H fixed	1.2	1.38	1.14	1.05	1.01	0.716	0.776	0.898	1.07
I fixed	1.2	1.12	1.64	0.829	0.585	0.43	0.343	0.946	1.11
K fixed	1.05	1.23	1.03	1.47	2.01	2.67	3.21	2.42	2.72
L fixed	0.967	0.883	1.04	1.09	0.674	0.418	0.343	0.749	0.847
M fixed	0.961	0.75	0.779	0.916	0.755	0.485	0.297	0.749	0.756
N fixed	1.29	0.779	0.83	1.01	1.2	0.747	0.43	0.864	0.675
P fixed	0.622	0.808	0.79	1.18	1.74	0.474	0.461	0.796	0.872
Q fixed	1.25	1.06	0.882	1.07	1.22	0.933	0.877	0.922	0.882
R fixed	1.87	1.28	1.54	1.47	2.18	6.76	7.34	3.06	2.66
V fixed	0.943	1.28	1.5	0.825	0.605	0.507	0.369	0.95	0.803
W fixed	0.641	0.925	0.926	1.21	0.644	0.431	0.304	0.647	0.657
Y fixed	0.742	0.796	0.971	0.832	0.78	0.428	0.371	0.719	0.839
pThr fixed	0.678	1.19	0.865	0.862	0.521	0.441	0.48	0.575	0.561
pTyr fixed	0.522	0.996	0.772	0.617	0.52	0.387	0.493	0.548	0.689

EIF2AK3, construct: aa536-1116, human (from UniProt Q9NZJ5)
relative phosphorylation
Conditions	at +1	at +2	at +3	at +4	at -1	at -2	at -3	at -4	at -5
A fixed	0.888	1.08	0.836	0.863	0.745	0.615	1.02	1.02	1.07
D fixed	0.348	0.419	0.491	0.684	0.71	3.5	1.61	1.18	1
E fixed	0.676	0.277	0.555	0.678	0.62	3	1.23	0.94	0.712
F fixed	1.08	0.921	1.09	0.92	1.21	1.22	1.04	1.05	1.32
G fixed	1.02	1.14	1.89	1.14	0.458	0.748	0.825	1.05	0.984
H fixed	0.898	1.28	1.31	1.12	1.21	0.712	0.911	1.08	1.17
I fixed	1.05	0.748	0.703	0.838	1.2	0.527	0.819	0.774	0.837
K fixed	1.12	1.06	1.09	1.28	1.19	0.472	0.798	0.942	0.996
L fixed	0.907	0.609	0.8	0.822	1.11	0.877	1.06	0.79	1.01
M fixed	1.6	0.823	0.814	0.871	1.22	0.942	1.06	0.956	0.9
N fixed	0.86	1.12	0.821	0.95	0.879	0.698	0.856	0.788	0.788
P fixed	0.245	0.662	1.48	1.24	0.582	0.429	0.749	0.871	0.837
Q fixed	1.43	0.719	0.778	0.865	0.837	0.615	0.767	0.751	0.713
R fixed	2.11	2.2	1.43	1.53	1.34	0.576	0.934	1.1	1.06
V fixed	0.92	0.709	0.664	0.78	1.25	0.544	0.839	0.825	0.769
W fixed	0.809	1.44	1.25	1.3	1.07	0.892	1.42	1.66	1.49
Y fixed	1.04	1.79	0.999	1.12	1.36	0.629	1.06	1.22	1.34
pThr fixed	0.47	0.307	0.402	0.715	0.478	1.31	1.05	0.722	0.848
pTyr fixed	0.828	0.387	0.715	0.796	0.726	0.527	1.05	0.682	0.847

EIF2AK4, construct: aa191-1024, human (from UniProt Q9P2K8)
relative phosphorylation
Conditions	at +1	at +2	at +3	at +4	at -1	at -2	at -3	at -4	at -5
A fixed	0.622	0.832	0.837	0.891	0.732	0.958	0.968	1.01	1.07
D fixed	0.335	1.1	0.504	0.75	1.22	2.28	1.62	1.47	1.12
E fixed	0.537	0.351	0.539	0.788	0.894	2.2	1.68	1.16	1.06
F fixed	2.06	0.645	0.948	0.945	0.836	1.18	0.891	0.86	1.07
G fixed	0.757	0.811	2.04	1.16	1.03	1.02	0.924	1.1	1.06
H fixed	1.04	1.8	1.02	0.969	1.12	0.964	0.901	1.18	1.17
I fixed	0.858	0.689	0.699	0.896	0.635	0.533	0.76	0.77	0.823
K fixed	0.724	0.717	1.11	1.08	0.78	0.555	0.695	0.945	1.04
L fixed	0.621	0.631	0.75	0.976	1.15	0.693	1.02	0.829	0.726
M fixed	1.68	0.59	0.826	0.973	1.11	1.09	1.08	0.846	0.825
N fixed	0.933	0.841	0.829	0.867	1.38	1.21	0.959	1.04	0.923
P fixed	0.162	0.475	1.9	1.07	0.629	0.643	0.699	0.825	0.824
Q fixed	1.28	0.611	0.774	0.811	1.26	0.968	0.976	0.997	0.881
R fixed	1.03	1.98	1.28	1.2	1.08	0.654	0.844	0.882	1.26
V fixed	0.996	0.773	0.74	0.849	0.961	0.52	0.727	0.838	0.926
W fixed	1.24	1.29	0.998	1.62	1.04	0.698	1.16	1.25	1.25
Y fixed	2.13	2.85	1.2	1.16	1.13	0.828	1.1	1	0.975
pThr fixed	0.715	0.592	0.686	0.736	0.803	1.16	0.969	1.03	0.724
pTyr fixed	0.656	0.789	0.83	1.55	1.43	0.652	1.01	0.867	0.881

ERN1, construct: aa468-end, human (from UniProt O75460)
relative phosphorylation
Conditions	at +1	at +2	at +3	at +4	at -1	at -2	at -3	at -4	at -5
A fixed	0.993	0.597	0.656	0.755	1.28	1.07	1.06	1.11	1.07
D fixed	0.229	0.173	0.375	0.276	0.33	0.672	0.705	0.813	0.747
E fixed	0.263	0.158	0.201	0.26	0.373	0.869	0.801	0.831	0.781
F fixed	0.67	0.858	1.32	1.07	0.966	1.13	0.781	0.708	0.873
G fixed	1.15	0.662	0.791	0.892	0.804	1.26	1.59	1.29	1.25
H fixed	0.835	1.9	1.31	1.03	1.75	1.03	1.03	0.948	1.07
I fixed	0.632	1.08	0.76	0.849	0.562	0.794	0.906	0.949	1.04
K fixed	2.21	1.7	1.45	2.02	1.89	1.14	1.2	1.48	1.49
L fixed	0.643	1.21	0.973	0.766	0.658	0.857	0.854	0.87	0.97
M fixed	1.03	1.14	0.85	0.929	0.937	0.9	0.818	0.937	0.871
N fixed	1.14	0.559	0.793	0.795	0.844	0.933	0.926	1.03	0.956
P fixed	0.258	0.347	0.525	0.851	0.833	1.43	1.08	0.981	0.909
Q fixed	1.2	0.65	0.683	0.912	0.986	0.958	0.833	0.878	0.822
R fixed	3.41	2.73	3.08	2.09	1.86	1.29	1.77	1.45	1.28
V fixed	0.78	1.19	0.726	0.85	1.02	0.982	0.938	0.911	0.971
W fixed	0.775	0.963	1.19	1.45	0.74	0.724	0.813	0.924	0.926
Y fixed	0.778	1.08	1.31	1.2	1.16	0.951	0.906	0.888	0.963
pThr fixed	0.381	0.299	0.315	0.372	0.448	0.996	1.2	0.999	0.991
pTyr fixed	0.3	0.61	0.58	0.345	0.571	1.16	1	0.776	0.916
